Experimental data as given in patent US11332512B2, “Peptides and combination of peptides for use in immunotherapy against various tumors” (Immatics Biotechnologies GmbH, priority 2015, dated 2022).

What follows are substances tested against HLA-A*02:01 (Homo sapiens, UniProt P04439, D140Y/D185E/D98H/E176V/E277Q/G131W/G231S/I119V/I121R/I166T/I218V/L300P/L318F/N151K/N90K/P208A/P217A/Q86G/Q94H/R138H/R169H/T345S) (assay: MHC binding assay: UV-ligand exchange with beta2m ELISA (peptide exchange yield)). Settings: binding to HLA-A*02:01, β2m ELISA.
Excerpt: Candidate peptides for T cell based therapies according to the present invention were further tested for their MHC binding capacity (affinity). The individual peptide-MHC complexes were produced by UV-ligand exchange, where a UV-sensitive peptide is cleaved upon UV-irradiation, and exchanged with the peptide of interest as analyzed. Only peptide candidates that can effectively bind and stabilize the peptide-receptive MHC molecules prevent dissociation of the MHC complexes. To determine the yield of the exchange reaction, an ELISA was performed based on the detection of the light chain (β2m) of stabilized MHC complexes. The assay was performed as generally described in Rodenko et al. (Rodenko et al., 2006).
96 well MAXISorp plates (NUNC) were coated over night with 2 ug/ml streptavidin in PBS at room temperature, washed 4× and blocked for 1 h at 37° C. in 2% BSA containing blocking buffer. Refolded HLA-A*02:01/MLA-001 monomers served as standards, covering the range of 15-500 ng/ml. Peptide-MHC monomers of the UV-exchange reaction were diluted 100 fold in blocking buffer. Samples were incubated for 1 h at 37° C., washed four times, incubated with 2 ug/ml HRP conjugated anti-β2m for 1 h at 37° C., washed again and detected with TMB solution that is stopped with […]. Absorption was measured at 450 nm. Candidate peptides that show a high exchange yield (preferably higher than 50%, most preferred higher than 75%) are generally preferred for a generation and production of antibodies or fragments thereof, and/or T cell receptors or fragments thereof, as they show sufficient avidity to the MHC molecules and prevent dissociation of the MHC complexes.

Q: How did the “Peptide exchange (MHC class I binding score, peptide exchange yield)” value (“Peptide exchange” below) turn out when “3 (RVIDDSLVVGV; listed as Homo sapiens) [compound 3]” was run?
A: +++ (= ≥50% = +++)

Q: With “5 (GLVDIMVHL; listed as Homo sapiens) [compound 5]” as the substance, how does the “Peptide exchange” value read?
A: +++ (= ≥50% = +++)

Q: How did the “Peptide exchange” value turn out when “7 (ALLQALMEL; listed as Homo sapiens) [compound 7]” was run?
A: +++ (= ≥50% = +++)

Q: For “10 (QLIEKNWLL; listed as Homo sapiens) [compound 10]”, which “Peptide exchange” value is on record?
A: +++ (= ≥50% = +++)

Q: With “11 (LLDPKTIFL; listed as Homo sapiens) [compound 11]” as the substance, how does the “Peptide exchange” value read?
A: +++ (= ≥50% = +++)

Q: Which “Peptide exchange” value does the source give for “12 (RLLDPKTIFL; listed as Homo sapiens) [compound 12]” here?
A: +++ (= ≥50% = +++)

Q: How did the “Peptide exchange” value turn out when “13 (RLHDENILL; listed as Homo sapiens) [compound 13]” was run?
A: +++ (= ≥50% = +++)

Q: Which “Peptide exchange” value does the source give for “16 (SLADLSLLL; listed as Homo sapiens) [compound 16]” here?
A: +++ (= ≥50% = +++)

Q: How did the “Peptide exchange” value turn out when “21 (YLMDDFSSL; listed as Homo sapiens) [compound 21]” was run?
A: +++ (= ≥50% = +++)

Q: For “22 (LMYPYIYHV; listed as Homo sapiens) [compound 22]”, which “Peptide exchange” value is on record?
A: +++ (= ≥50% = +++)

Q: How did the “Peptide exchange” value turn out when “23 (ALLSPLSLA; listed as Homo sapiens) [compound 23]” was run?
A: +++ (= ≥50% = +++)

Q: With “24 (KVWSDVTPL; listed as Homo sapiens) [compound 24]” as the substance, how does the “Peptide exchange” value read?
A: +++ (= ≥50% = +++)

Q: Which “Peptide exchange” value does the source give for “25 (LLWGHPRVALA; listed as Homo sapiens) [compound 25]” here?
A: +++ (= ≥50% = +++)

Q: With “26 (VLDGKVAVV; listed as Homo sapiens) [compound 26]” as the substance, how does the “Peptide exchange” value read?
A: +++ (= ≥50% = +++)

Q: Which “Peptide exchange” value does the source give for “30 (IITEVITRL; listed as Homo sapiens) [compound 30]” here?
A: +++ (= ≥50% = +++)

Q: How did the “Peptide exchange” value turn out when “31 (GLLETTGLLAT; listed as Homo sapiens) [compound 31]” was run?
A: +++ (= ≥50% = +++)

Q: “36 (TVLQELINV; listed as Homo sapiens) [compound 36]” was tested. Which “Peptide exchange” value did it give?
A: +++ (= ≥50% = +++)

Q: For “40 (KIWEELSVLEV; listed as Homo sapiens) [compound 40]”, which “Peptide exchange” value is on record?
A: +++ (= ≥50% = +++)

Q: How did the “Peptide exchange” value turn out when “41 (IVTEIISEI; listed as Homo sapiens) [compound 41]” was run?
A: +++ (= ≥50% = +++)

Q: How did the “Peptide exchange” value turn out when “44 (AVFNLVHVV; listed as Homo sapiens) [compound 44]” was run?
A: +++ (= ≥50% = +++)

Q: How did the “Peptide exchange” value turn out when “45 (FLPVSVVYV; listed as Homo sapiens) [compound 45]” was run?
A: +++ (= ≥50% = +++)

Q: Which “Peptide exchange” value does the source give for “47 (GLNGFNVLL; listed as Homo sapiens) [compound 47]” here?
A: +++ (= ≥50% = +++)

Q: For “48 (KISDFGLATV; listed as Homo sapiens) [compound 48]”, which “Peptide exchange” value is on record?
A: +++ (= ≥50% = +++)

Q: Which “Peptide exchange” value does the source give for “54 (YLVPGLVAA; listed as Homo sapiens) [compound 54]” here?
A: +++ (= ≥50% = +++)

Q: “55 (HLFDKIIKI; listed as Homo sapiens) [compound 55]” was tested. Which “Peptide exchange” value did it give?
A: +++ (= ≥50% = +++)

Q: For “58 (HLLGEGAFAQV; listed as Homo sapiens) [compound 58]”, which “Peptide exchange” value is on record?
A: +++ (= ≥50% = +++)

Q: With “59 (ALADGIKSFLL; listed as Homo sapiens) [compound 59]” as the substance, how does the “Peptide exchange” value read?
A: +++ (= ≥50% = +++)

Q: How did the “Peptide exchange” value turn out when “60 (YLFSQGLQGL; listed as Homo sapiens) [compound 60]” was run?
A: +++ (= ≥50% = +++)

Q: For “61 (ALYPKEITL; listed as Homo sapiens) [compound 61]”, which “Peptide exchange” value is on record?
A: +++ (= ≥50% = +++)

Q: For “62 (SLVENIHVL; listed as Homo sapiens) [compound 62]”, which “Peptide exchange” value is on record?
A: +++ (= ≥50% = +++)

Q: For “63 (KLLPMVIQL; listed as Homo sapiens) [compound 63]”, which “Peptide exchange” value is on record?
A: +++ (= ≥50% = +++)

Q: With “67 (FLIENLLAA; listed as Homo sapiens) [compound 67]” as the substance, how does the “Peptide exchange” value read?
A: +++ (= ≥50% = +++)

Q: For “68 (QLMNLIRSV; listed as Homo sapiens) [compound 68]”, which “Peptide exchange” value is on record?
A: +++ (= ≥50% = +++)

Q: For “75 (ALLDGALQL; listed as Homo sapiens) [compound 75]”, which “Peptide exchange” value is on record?
A: +++ (= ≥50% = +++)

Q: With “76 (FTAEFLEKV; listed as Homo sapiens) [compound 76]” as the substance, how does the “Peptide exchange” value read?
A: +++ (= ≥50% = +++)

Q: With “80 (VLTGQVHEL; listed as Homo sapiens) [compound 80]” as the substance, how does the “Peptide exchange” value read?
A: +++ (= ≥50% = +++)

Q: Which “Peptide exchange” value does the source give for “82 (ILAEEPIYIRV; listed as Homo sapiens) [compound 82]” here?
A: +++ (= ≥50% = +++)

Q: With “86 (SLFSNIESV; listed as Homo sapiens) [compound 86]” as the substance, how does the “Peptide exchange” value read?
A: +++ (= ≥50% = +++)

Q: With “87 (KLLSLLEEA; listed as Homo sapiens) [compound 87]” as the substance, how does the “Peptide exchange” value read?
A: +++ (= ≥50% = +++)

Q: Which “Peptide exchange” value does the source give for “88 (LLLPLELSLA; listed as Homo sapiens) [compound 88]” here?
A: +++ (= ≥50% = +++)

Q: How did the “Peptide exchange” value turn out when “94 (YLDEVAFML; listed as Homo sapiens) [compound 94]” was run?
A: +++ (= ≥50% = +++)

Q: For “95 (KLIDEDEPLFL; listed as Homo sapiens) [compound 95]”, which “Peptide exchange” value is on record?
A: +++ (= ≥50% = +++)

Q: Which “Peptide exchange” value does the source give for “98 (FVQEKIPEL; listed as Homo sapiens) [compound 98]” here?
A: +++ (= ≥50% = +++)

Q: How did the “Peptide exchange” value turn out when “99 (TLFGIQLTEA; listed as Homo sapiens) [compound 99]” was run?
A: +++ (= ≥50% = +++)

Q: For “100 (ALQSFEFRV; listed as Homo sapiens) [compound 100]”, which “Peptide exchange” value is on record?
A: +++ (= ≥50% = +++)

Q: For “108 (FIANLPPELKA; listed as Homo sapiens) [compound 108]”, which “Peptide exchange” value is on record?
A: +++ (= ≥50% = +++)

Q: How did the “Peptide exchange” value turn out when “109 (ILGSFELQL; listed as Homo sapiens) [compound 109]” was run?
A: +++ (= ≥50% = +++)

Q: How did the “Peptide exchange” value turn out when “111 (AQLEGKLVSI; listed as Homo sapiens) [compound 111]” was run?
A: +++ (= ≥50% = +++)

Q: For “112 (ILAQDVAQL; listed as Homo sapiens) [compound 112]”, which “Peptide exchange” value is on record?
A: +++ (= ≥50% = +++)

Q: “122 (SIIDTELKV; listed as Homo sapiens) [compound 122]” was tested. Which “Peptide exchange” value did it give?
A: +++ (= ≥50% = +++)

Q: “125 (AALEVLAEV; listed as Homo sapiens) [compound 125]” was tested. Which “Peptide exchange” value did it give?
A: +++ (= ≥50% = +++)

Q: With “126 (QLREAFEQL; listed as Homo sapiens) [compound 126]” as the substance, how does the “Peptide exchange” value read?
A: +++ (= ≥50% = +++)

Q: For “130 (QLYGSAITL; listed as Homo sapiens) [compound 130]”, which “Peptide exchange” value is on record?
A: +++ (= ≥50% = +++)

Q: With “131 (SLYPHFTLL; listed as Homo sapiens) [compound 131]” as the substance, how does the “Peptide exchange” value read?
A: +++ (= ≥50% = +++)

Q: Which “Peptide exchange” value does the source give for “132 (ALLNNVIEV; listed as Homo sapiens) [compound 132]” here?
A: +++ (= ≥50% = +++)

Q: How did the “Peptide exchange” value turn out when “136 (LLWDAPAKC; listed as Homo sapiens) [compound 136]” was run?
A: +++ (= ≥50% = +++)

Q: “139 (IILENIQSL; listed as Homo sapiens) [compound 139]” was tested. Which “Peptide exchange” value did it give?
A: +++ (= ≥50% = +++)

Q: With “140 (FLDSQITTV; listed as Homo sapiens) [compound 140]” as the substance, how does the “Peptide exchange” value read?
A: +++ (= ≥50% = +++)

Q: How did the “Peptide exchange” value turn out when “143 (MLWESIMRV; listed as Homo sapiens) [compound 143]” was run?
A: +++ (= ≥50% = +++)

Q: “144 (FLISQTPLL; listed as Homo sapiens) [compound 144]” was tested. Which “Peptide exchange” value did it give?
A: +++ (= ≥50% = +++)

Q: How did the “Peptide exchange” value turn out when “145 (ALEEKLENV; listed as Homo sapiens) [compound 145]” was run?
A: +++ (= ≥50% = +++)

Q: With “147 (GLLSALENV; listed as Homo sapiens) [compound 147]” as the substance, how does the “Peptide exchange” value read?
A: +++ (= ≥50% = +++)
